From US20090286854A1, “APTAMERS DIRECTED TO MUCI” (The Open University, published 2009)

Tests used:
[1] = biological target: 5TR MUC1 recombinant protein (human); assay: affinity chromatography, elution from the MUC1 chromatography matrix
[2] = biological target: MUC1 5TR glycosylated with GalNAc (Tn antigen) (Homo sapiens, UniProt P15941 P15941:161-260); assay: pulldown; Ni-NTA magnetic beads, 100 mM NaCl, 5 mM MgCl2, pH 7.4, 37 C; values in figure only; settings: tags: 6xHis; expressed in E. coli BL21; glycosylated in vitro with ppGalNAc-T1
Sequence of MUC1 5TR glycosylated with GalNAc (Tn antigen) (P15941 141-240, one chain of several): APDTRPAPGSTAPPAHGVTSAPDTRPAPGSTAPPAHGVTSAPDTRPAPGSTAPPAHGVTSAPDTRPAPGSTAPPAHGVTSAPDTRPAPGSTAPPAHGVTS
Procedure: The Qiagen kit containing agarose magnetic beads in the proportion of 5% solution coated with nickel for His-tag purification was used for the assay. Seven tubes each containing 900 μl of start buffer (100 mM NaCl₂, 5 mM MgCl₂, pH 7.4) used to resuspend a 10 μM solution of glycosylated MUC1 5TR peptide were prepared according to manufacturer's instructions:
10 μl of the 5% beads solution was added to the solution and incubated at 4° C. for half an hour with shaking, After 30 minutes, supernatant was removed. The beads were washed by adding start buffer, allowing 1-5 min of washing time. 1 mM (500 μl) of each Glycosylated MUC1 aptamer solution in start buffer were added to the previously prepared magnetic beads containing his-tagged glycosylated MUC1. The solution containing complexed beads and aptamer solution were allowed to incubate at 37° C. for 1 hour with shaking.
After one hour the supernatant was removed and its absorbance was measured using a UV spectrometer (Eppendorf, USA) at 260 nm. The remaining Magnetic beads were washed three times with 500 μl of wash buffer (150 mM NaCl₂, 5 mM MgCl₂, pH 7.4). The supernatant was removed and 50 μl of elution buffer (1.5M NaCl₂, 5mM MgCl₂, pH 7.4) were added. The elution buffer was allowed to incubate with magnetic beads for 5 min with shaking. The magnetic beads were spun for 30 seconds at 4000 rpm to a pellet. The magnetic beads were attracted by a magnetic bar and supernatant was removed. The eluted supernatant was removed and measured using a UV spectrometer (Eppendorf, USA) 260 absorbance.

[3] = biological target: T1, MUC1 5TR (five tandem repeat recombinant MUC1, unglycosylated) (Homo sapiens, UniProt P15941 P15941:161-260); assay: SPR; 100 mM NaCl, 5 mM MgCl2, pH 7.4; printed ka and kd would give 0.85 nM; p17 and claim list print SEQ 2 with 3' G instead of C; settings: tags: 6xHis; expressed in E. coli BL21; biotin-XX labelled for SPR; about 11.8 kDa
T1 sequence (P15941 141-240, one chain of several): as above
Procedure: (§1) Biotinylated 5TR-MUC1 protein was immobilised on a BIAcore SA sensor chip (gold-streptavidin) and the system was optimised to reduce mass transport, steric hindrance, crowding, avidity and aggregation. A range of peptide concentrations, ranging from 1 μM to 1 nM were tested under different injection times and the optimum conditions used were 100 μL of 1 nM peptide in running buffer perfused over each individual channel at the rate of 25 μL/min for […]. Chip regeneration to peptide level was followed by the subsequent application of a 30 sec pulse with a solution of 10 mM NaOH. The aptamers were prepared in their selection buffers (phosphate buffer containing 100 mM NaCl, 5 mM MgCl₂, pH 7.4) at 1 μM and were applied with 30 sec injections with a 5 sec wash step with selection buffer to allow for non-specific analyte removal. The chip surfaces were regenerated (elution step) by the application of a 10 μL pulse of 1.5 M NaCl, 5 mM MgCl₂, pH 7.4.
(§2) The experimental BIAcore data were fitted to two mathematical equations for the determination of association (kₐ) and dissociation constants (kd) using non-linear regression analysis. […]
(§3) The concentration of free aptamer was assumed to be constant since an excess amount was applied to the system when compared to the amount of MUC1. […] The Kd was calculated from the following relationship: Kd is equal to kd/kₐ. […]

[4] = biological target: T1, MUC1 5TR (five tandem repeat …); assay: SPR; 100 mM NaCl, 5 mM MgCl2, pH 7.4; printed ka 0.207e7, kd 0.00098 would give 0.47 nM; settings: tags: 6xHis; expressed in E. coli BL21; biotin-XX labelled for SPR; about 11.8 kDa
Procedure: as §1, §2, §3

[5] = biological target: T1, MUC1 5TR (five tandem repeat …); assay: SPR; 100 mM NaCl, 5 mM MgCl2, pH 7.4; printed ka and kd would give 0.69 nM; settings: tags: 6xHis; expressed in E. coli BL21; biotin-XX labelled for SPR; about 11.8 kDa
Procedure: as §1, §2, §3

[6] = biological target: T1, MUC1 5TR (five tandem repeat …); assay: SPR; 100 mM NaCl, 5 mM MgCl2, pH 7.4; printed ka and kd would give 0.83 nM; settings: tags: 6xHis; expressed in E. coli BL21; biotin-XX labelled for SPR; about 11.8 kDa
Procedure: as §1, §2, §3

Sequence of 5TR MUC1 recombinant protein (human) (main, as listed by the source): as the sequence (P15941 141-240, one chain of several) above

Molecule	binding result [2]	other results
C595 anti-MUC1 monoclonal antibody		NaSCN concentration at elution from the affinity matrix [1]: 0.8 M
TAGCCTTAATGCCTTTGTAAGGCGA (ssDNA) [5TR-T6]	binds	
CGGTCTACGGAGCCGCGTTAAACTT (ssDNA) [5TR-T7]	binds	
GGCTATAGCACATGGGTAAAACGAC (ssDNA) [MUC1 5TR-2]		Kd [3]: 85.2 nM
AGTGGTGGTTTTATAAGACTGATAC (ssDNA) [5TR-T5]	binds	
GAAGTGAAAATGACAGAACACAACA (ssDNA) [MUC1 5TR-1]		Kd [4]: 47.3 nM
GCTGGGTAAATAGATGATTCCCGGC (ssDNA) [5TR-T4]	binds	
TACTGCATGCACACCACTTCAACTA (ssDNA) [MUC1 5TR-4]		Kd [5]: 69 nM
GGCGTACGGTAGGCGGGGTCAACTG (ssDNA) [5TR-T3]	binds	
GGGTTATATTACTCGGCCGGTGTAA (ssDNA) [5TR-T1]	binds	
CAAACAATCAAACAGCAGTGGGGTG (ssDNA) [MUC1 5TR-3]		Kd [6]: 83 nM
